The text below walks through data of publication PMC5794333, “Identification of osmoadaptive strategies in the halophile, heterotrophic ciliate Schmidingerothrix salinarum” (PLoS Biology, 2018).

Broadly, the Km is the substrate concentration at which the rate is half of its maximum. Broadly, the Vmax is the top rate of the reaction or transport when substrate is in excess.

For data set [1], the system named is O=C(O)CC(C(=O)O)C(O)C(=O)O. The data set can be described thus: purified protein. As to conditions: 0.05 M NaCl, 0.8 mM NADP+, 1 mM MgCl2, 32.5 mM Tris/HCl pH 7.5, concentration as DL-isocitrate, text b40 prints 0.010 mM, the table's Vmax/Km fits 0.019.
Another data set relates to O=C(O)CC(=O)C(=O)O. The data set can be described thus: purified protein. As to conditions: 0.05 M NaCl, 0.3 mM NADH, 32.5 mM Tris/HCl pH 7.5.

Turning to “ICDHS.salinarum (Schmidingerothrix salinarum)”, in data set [1], the Km was determined as 19 µM and the Vmax came to 6.8 µmol/min/mg.

For the substance “MDHS.salinarum (Schmidingerothrix salinarum)”, in the data set on O=C(O)CC(=O)C(=O)O, the Km turned out to be 38 µM and the Vmax is 2060 µmol/min/mg.
